The supplement of paper PMC12042874
± gives the uncertainty stated by the source.

Assay: amyloid nucleation score (Sup35N fusion, yeast selection) (log enrichment); library NNK1; higher = more nucleation; inactive = no reads after selection
Outline: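 For the nucleation score, DiMSum gave the log enrichment of output over input reads, centred on the mode score of non-aggregating sequences. Psi-negative yeast expressing Sup35N fused to peptides of 20 random codons were induced with 100 μM copper sulfate for 24 hours and grown 7 days at 30°C on medium lacking adenine and uracil. Input and output plasmid inserts were Illumina-sequenced, and sequences with under 100 input reads were excluded.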
With CYLSNLAMSHSCMHYALTAA the amyloid nucleation score was -0.713 ± 1.4. For DFRKDWYWESPASRFFTNEV, the amyloid nucleation score was 0.44 ± 0.53. Work on GAIFYGVCCIRPNWNVVSTS yielded an amyloid nucleation score of 5.69 ± 0.059. In the case of RHAKRLWRV, the amyloid nucleation score is reported as -0.574 ± 0.78. KTGPAA gave an amyloid nucleation score of -0.17 ± 0.73. Substance IRFHCLHLVAVLTKTRVFEA has an amyloid nucleation score of 0.064 ± 0.95. FMYKMGSYGMDM gave an amyloid nucleation score of -0.57 ± 0.5. Substance ILSFSSRPVVDNHSTTW has an amyloid nucleation score of 0.682 ± 0.51. In the case of GNCGET, the amyloid nucleation score is reported as 0.311 ± 0.41. Substance REEYYGIPSEINGHTTLVYS has an amyloid nucleation score of 1.03 ± 0.72. Substance SVPSVDAIMVGTWCYRCW has an amyloid nucleation score of -0.28 ± 0.68. For SYIALIELFLFDSRRGHESV, the amyloid nucleation score was 0.078 ± 0.35. Substance SVLIVLMHGMGYQQKTYCRF has an amyloid nucleation score of 0.316 ± 0.48. For GFSRYSPRSKFFNSLVLKSS, the amyloid nucleation score was -0.171 ± 1.1. QKTASILLPVRYFWCEKSWM showed an amyloid nucleation score of -0.667 ± 1.5. WHTRDYLKRRL gave an amyloid nucleation score of 0.906 ± 0.75. With FWPGFSWSIKLQLTFG the amyloid nucleation score was -0.326 ± 0.3. Work on RVDGHTVR yielded an amyloid nucleation score of 2.4 ± 0.14. In the case of SSPPDNTKSKATLKALE, the amyloid nucleation score is reported as -1.5 ± 2.4. With IWCSCAYRGVGMSTGFAIIY the amyloid nucleation score was 1.13 ± 0.58. NIITVGNGSILMMVWSSEVN gave an amyloid nucleation score of 5.63 ± 0.08. CIMMRHMVSYEADLRTMFLN gave an amyloid nucleation score of 3.58 ± 0.18. Substance LVRRRSKSRVRVPFLRLSMR has an amyloid nucleation score of -0.415 ± 0.72. VRLRDVILSKVATMSF gave an amyloid nucleation score of -0.363 ± 0.27. Substance THNFEGLSVWDLKDLKCCS has an amyloid nucleation score of 5.16 ± 0.087. Substance GACYNSGCCFNPLDWYK has an amyloid nucleation score of 0.904 ± 0.57. RLPLMNWFTAMA showed an amyloid nucleation score of 0.037 ± 0.42. Substance SWNMSFVWFHGCITWRQKGF has an amyloid nucleation score of 0.408 ± 0.4. Substance NRNVYRSGVFGSGVWTRVER has an amyloid nucleation score of 0.15 ± 0.45. With CFWVEMFFSETHMIKNYCIV the amyloid nucleation score was 1.27 ± 0.61. In the case of SALGFFRAYQSIKRTLFRRR, the amyloid nucleation score is reported as -0.064 ± 0.56. In the case of NRYIRELGRKTYVLRKEFRG, the amyloid nucleation score is reported as -0.274 ± 1.2. In the case of LVPVIKEQFCCHVWVMV, the amyloid nucleation score is reported as “inactive”. In the case of WFRIKGTGTLTPLKQHYSIN, the amyloid nucleation score is reported as -0.355 ± 0.56. Work on SSVRLDKNN yielded an amyloid nucleation score of -0.315 ± 0.52. YSVINWFMVAYYRADRLVNG gave an amyloid nucleation score of -0.144 ± 1.2. With GTIVEWAT the amyloid nucleation score was “inactive”. Work on IVTRWY yielded an amyloid nucleation score of -0.257 ± 0.21. In the case of YFWGKHTRFMISY, the amyloid nucleation score is reported as 0.018 ± 0.36. YCVVFYP showed an amyloid nucleation score of 1.66 ± 0.61. Substance ANDMMRKDCTFDTSVFMESV has an amyloid nucleation score of -0.379 ± 0.26. HITDYRVRT gave an amyloid nucleation score of 1.27 ± 0.41. With TWNTL the amyloid nucleation score was -0.343 ± 0.4. Work on SQCQFVMVDRNGYGTKLRNY yielded an amyloid nucleation score of -0.24 ± 0.36. Substance YLNYWFR has an amyloid nucleation score of -0.341 ± 0.28. ELLFFYYMSSNCFVFISCSQ gave an amyloid nucleation score of 1.59 ± 0.38. For NLGVVSIHDRHRYVAKVYSS, the amyloid nucleation score was 0.844 ± 0.5. YVYLYGGSSQFVWYGLFSFA gave an amyloid nucleation score of 2.65 ± 0.14. TKVKCSLLSFWEKKFLLLRL showed an amyloid nucleation score of 1.82 ± 0.34. VRDKSGPYYSSV gave an amyloid nucleation score of 0.705 ± 0.4. Substance SSAGMTRTKNGPPC has an amyloid nucleation score of 2.89 ± 0.082. With PLDHLHLSKWCTSEKDLVV the amyloid nucleation score was 0.766 ± 0.38. NWSEWGSRIHFKCWIEMLLR gave an amyloid nucleation score of 0.174 ± 0.55. For ECKWSLKNHYWVYDGLRGGT, the amyloid nucleation score was -0.378 ± 0.78. Work on MESLIRFSPASKIVISPFTV yielded an amyloid nucleation score of 0.748 ± 1.2. In the case of YLSIKVITQGDWKCQVRVLW, the amyloid nucleation score is reported as -0.332 ± 0.55. With MYYSIGWKR the amyloid nucleation score was 1.48 ± 0.8. For TSDNGKNAQGWGM, the amyloid nucleation score was 0.145 ± 1. Work on LRYVKSHSTMAFKLGATPGT yielded an amyloid nucleation score of 0.505 ± 0.66. With EARWRQSC the amyloid nucleation score was 0.387 ± 0.36. For VELLIEFLSRLGWIGCRHVL, the amyloid nucleation score was 0.08 ± 0.86. Substance VVMRPIFYGNSWLVRPLRNM has an amyloid nucleation score of -0.272 ± 0.45. With CGMMVSEGSVSCRSLPIYLA the amyloid nucleation score was 0.275 ± 0.34. MICYLF gave an amyloid nucleation score of 0.019 ± 0.26. In the case of KNVNAVR, the amyloid nucleation score is reported as 0.173 ± 0.79. Substance FWATRVTWLDEMLIYYCLVN has an amyloid nucleation score of 0.155 ± 0.36. TLIRGIIISRWRRVRNIDE gave an amyloid nucleation score of -0.216 ± 0.3. Work on PHSSFPESSCKGSGSVSWAE yielded an amyloid nucleation score of -0.172 ± 0.74. With SFNYRIAFFSRYRPYMGSLG the amyloid nucleation score was 1.76 ± 0.37. Work on GRRTAI yielded an amyloid nucleation score of -0.069 ± 0.66. Work on IVHIHGLQAANLAASWSANL yielded an amyloid nucleation score of 2.68 ± 0.18. With TLFLLVSNVIAEFLFWIVCP the amyloid nucleation score was 0.212 ± 0.3. For TTNMRLFLLYNTTLVMSFNV, the amyloid nucleation score was 1.88 ± 0.16. CVTANRHDENITSLLWRIVQ showed an amyloid nucleation score of -2.36 ± 2.4. In the case of VYWNV, the amyloid nucleation score is reported as 1.1 ± 0.57. With FNRNNMKYQYFLKRIYMNW the amyloid nucleation score was -0.338 ± 1.4. With PGTSARRIDTKDVPYPFIPS the amyloid nucleation score was 1.16 ± 0.51. In the case of LLNYGLRFCLVTARSELTYM, the amyloid nucleation score is reported as 0.979 ± 0.62. With SVFGWR the amyloid nucleation score was 1.32 ± 0.81. KEWFYYLVDELCGGLCNPVR showed an amyloid nucleation score of 0.39 ± 1.2. VFASGAAGTKFWR gave an amyloid nucleation score of 0.302 ± 0.27. With FSKQTPVASEG the amyloid nucleation score was “inactive”. GTQMVLFDY gave an amyloid nucleation score of 1.12 ± 0.58. Work on GPPLWADNKVVLIR yielded an amyloid nucleation score of -0.878 ± 0.94. HLNNSLLELVNCRKYSIKGC gave an amyloid nucleation score of 0.088 ± 0.35. Substance NLSGSFPN has an amyloid nucleation score of -0.2 ± 0.92.
